Experimental data from article PMC5093151.

System: GII.4 Sydney (SYV) norovirus VLP, assembled capsid protein VP1 (Human norovirus GII.4 Sydney)
Test: ELASA (plate binding)
Conditions: VLP heated 75 C 1 min (partly denatured); 1 uM aptamer; ELASA: VLPs on polystyrene plate, blocked with 5% skim milk in PBS + 0.05% Tween 20 with 10 nM unrelated primers (2 h, room temperature), 1 uM biotinylated …

For “AGTATACGTATTACCTGCAGCTGGGAAGAGGTCCGGTAAATGCAGGGTCAGCCCGGAGAGCGATATCTCGGAGATCTTGC [M6-2]”, which binding signal (% of signal with untreated VLP) is on record?
Its binding signal (% of signal with untreated VLP) is 20.1.
